Reference: publication PMC5491523 (2017)

B1: CIB2-V5 (calcium and integrin-binding protein 2, V5 tagged, wild type) [human] / TMC1-EGFP (EGFP tagged human full length TMC1) [human] (parent complex)
chain 1: MGNKQTIFTEEQLDNYQDCTFFNKKDILKLHSRFYELAPNLVPMDYRKSPIVHVPMSLIIQMPELRENPFKERIVAAFSEDGEGNLTFNDFVDMFSVLCESAPRELKANYAFKIYDFNTDNFICKEDLELTLARLTKSELDEEEVVLVCDKVIEEADLDGDGKLGFADFEDMIAKAPDFLSTFHIRI
chain 2: MSPKKVQIKVEEKEDETEESSSEEEEEVEDKLPRRESLRPKRKRTRDVINEDDPEPEPEDEETRKAREKERRRRLKRGAEEEEIDEEELERLKAELDEKRQIIATVKCKPWKMEKKIEVLKEAKKFVSENEGALGKGKGKRWFAFKMMMAKKWAKFLRDFENFKAACVPWENKIKAIESQFGSSVASYFLFLRWMYGVNMVLFILTFSLIMLPEYLWGLPYGSLPRKTVPRAEEASAANFGVLYDFNGLAQYSVLFYGYYDNKRTIGWMNFRLPLSYFLVGIMCIGYSFLVVLKAMTKNIGDDGGGDDNTFNFSWKVFTSWDYLIGNPETADNKFNSITMNFKEAITEEKAAQVEENVHLIRFLRFLANFFVFLTLGGSGYLIFWAVKRSQEFAQQDPDTLGWWEKNEMNMVMSLLGMFCPTLFDLFAELEDYHPLIALKWLLGRIFALLLGNLYVFILALMDEINNKIEEEKLVKANITLWEANMIKAYNASFSENSTGPPFFVHPADVPRGPCWETMVGQEFVRLTVSDVLTTYVTILIGDFLRACFVRFCNYCWCWDLEYGYPSYTEFDISGNVLALIFNQGMIWMGSFFAPSLPGINILRLHTSMYFQCWAVMCCNVPEARVFKASRSNNFYLGMLLLILFLSTMPVLYMIVSLPPSFDCGPFSGKNRMFEVIGETLEHDFPSWMAKILRQLSNPGLVIAVILVMVLAIYYLNATAKGQKAANLDLKKKMKMQALENKMRNKKMAAARAAAAAGRQ

Variants of: B1
Assay: FRET; cells co-expressing EGFP tagged human TMC1 (donor) and V5 tagged human CIB2; parent: 22; read off a plot

Row | response [%] | Variant
1 | ~3 | chain 1 MGNKQTIFTEEQLDNYQDCTFFNKKDILKLHSRFYELAPNLVPMDYRKSPIVHVPMSLIIQMPELRENPFKERIVAAFSEDGEGNLTFNDSVDMFSVLCESAPRELKANYAFKIYDFNTDNFICKEDLELTLARLTKSELDEEEVVLVCDKVIEEADLDGDGKLGFADFEDMIAKAPDFLSTFHIRI [chain 1 F91S]
2 | ~6.5 | chain 1 MGNKQTIFTEEQLDNYQDCTFFNKKDILKLHSRFYELAPNLVPMDYRKSPIVHVPMSLIIQMPDLRENPFKERIVAAFSEDGEGNLTFNDFVDMFSVLCESAPRELKANYAFKIYDFNTDNFICKEDLELTLARLTKSELDEEEVVLVCDKVIEEADLDGDGKLGFADFEDMIAKAPDFLSTFHIRI [chain 1 E64D]
3 | ~19 | chain 1 MGNKQTIFTEEQLDNYQDCTFFNKKDILKLHSRFYELAPNLVPMDYRKSPIVHVPMSLIIQMPELRENPFKERIVAAFSEDGEGNLTFNDFVDMFSVLCESAPRELKANYAFKIYDFNTDNFICKEDLELTLARLTKSELDEEEVVLVCDKVIEEADLDGDGKLGFADFEDMIAKAPDFLSTFHIWI [chain 1 R186W]
4 | ~19 | chain 1 MGNKQTIFTEEQLDNYQDCTFFNKKDILKLHSRFYELAPNLVPMDYRKSPIVHVPMSLIIQMPELWENPFKERIVAAFSEDGEGNLTFNDFVDMFSVLCESAPRELKANYAFKIYDFNTDNFICKEDLELTLARLTKSELDEEEVVLVCDKVIEEADLDGDGKLGFADFEDMIAKAPDFLSTFHIRI [chain 1 R66W]
5 | ~5 | chain 1 MGNKQTIFTEEQLDNYQDCTFFNKKDILKLHSRFYELAPNLVPMDYRKSPIVHVPMSLIIQMPELRENPFKERIVAAFSEDGEGNLTFNDFVDMFSVLWESAPRELKANYAFKIYDFNTDNFICKEDLELTLARLTKSELDEEEVVLVCDKVIEEADLDGDGKLGFADFEDMIAKAPDFLSTFHIRI [chain 1 C99W]
6 | ~18 | chain 1 MGNKQTIFTEEQLDNYQDCTFFNKKDILKLHSRFYELAPNLVPMDYRKSPIVHVPMSLIIQMPELRENPFKERIVAAFSEDGEGNLTFNDFVDMFSVLCESAPRELKANYAFKIYDFNTDNFTCKEDLELTLARLTKSELDEEEVVLVCDKVIEEADLDGDGKLGFADFEDMIAKAPDFLSTFHIRI [chain 1 I123T]
